Data taken from article PMC6548132, “Engineered SUMO/protease system identifies Pdr6 as a bidirectional nuclear transport receptor” (The Journal of Cell Biology, 2019).

Target: T1, recombinant Pdr6 (S. cerevisiae, UniProt P32767 1-1081)
T1 construct: Pdr6/Kap122, S. cerevisiae; also called Kap122; source: E. coli NEB express, purified (Ni2+ chelate beads)
T1 sequence (looked up): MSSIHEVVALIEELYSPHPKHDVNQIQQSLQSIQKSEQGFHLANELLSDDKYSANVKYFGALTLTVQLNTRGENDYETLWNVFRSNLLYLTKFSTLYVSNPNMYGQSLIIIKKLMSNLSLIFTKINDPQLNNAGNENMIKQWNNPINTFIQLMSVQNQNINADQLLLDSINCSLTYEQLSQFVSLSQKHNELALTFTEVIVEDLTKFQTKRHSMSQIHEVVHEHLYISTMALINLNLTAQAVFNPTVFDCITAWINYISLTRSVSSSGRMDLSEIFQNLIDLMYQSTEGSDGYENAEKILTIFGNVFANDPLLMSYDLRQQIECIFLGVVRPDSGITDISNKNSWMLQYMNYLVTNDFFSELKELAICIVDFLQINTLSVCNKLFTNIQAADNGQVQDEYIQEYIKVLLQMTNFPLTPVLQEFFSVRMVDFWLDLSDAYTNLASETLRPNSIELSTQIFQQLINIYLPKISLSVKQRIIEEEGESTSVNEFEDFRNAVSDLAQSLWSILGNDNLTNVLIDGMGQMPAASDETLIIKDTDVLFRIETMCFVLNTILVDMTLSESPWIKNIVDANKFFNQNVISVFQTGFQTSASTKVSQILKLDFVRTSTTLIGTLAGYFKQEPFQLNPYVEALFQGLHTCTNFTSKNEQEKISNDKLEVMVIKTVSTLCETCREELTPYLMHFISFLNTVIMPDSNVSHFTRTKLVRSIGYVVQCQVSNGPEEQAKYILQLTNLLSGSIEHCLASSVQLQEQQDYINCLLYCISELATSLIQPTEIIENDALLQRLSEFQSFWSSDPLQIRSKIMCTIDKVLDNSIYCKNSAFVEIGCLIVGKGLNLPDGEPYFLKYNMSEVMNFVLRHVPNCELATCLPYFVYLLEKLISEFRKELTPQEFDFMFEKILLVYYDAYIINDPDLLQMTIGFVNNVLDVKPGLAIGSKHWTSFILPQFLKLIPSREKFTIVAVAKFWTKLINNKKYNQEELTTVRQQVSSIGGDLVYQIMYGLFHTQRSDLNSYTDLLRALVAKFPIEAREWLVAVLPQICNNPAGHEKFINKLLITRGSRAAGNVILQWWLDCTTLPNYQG
Experiment: pull-down; 1.5 µM H14-ZZ-NEDD8-Ubc9 as bait, 3 µM recombinant Pdr6, with or without 3 µM RanGTP and 3 µM eIF5A; anti-ZZ/ED affibody matrix, elution by NEDP1 tag cleavage; 1 h at 4°, 45 mM Tris/HCl pH 7.5, 100 mM NaCl, 2 mM MgCl2, 5 mM DTT; SDS-PAGE/Coomassie
Conditions: both partners purified

B1: H14-ZZ-NEDD8–tagged Ubc9 (enzyme, yeast (S. cerevisiae), UniProt P50623 1-157, looked up)
chain: MSSLCLQRLQEERKKWRKDHPFGFYAKPVKKADGSMDLQKWEAGIPGKEGTNWAGGVYPITVEYPNEYPSKPPKVKFPAGFYHPNVYPSGTICLSILNEDQDWRPAITLKQIVLGVQDLLDSPNPNSPAQEPAWRSFSRNKAEYDKKVLLQAKQYSK
notes: Ubc9, SUMO-conjugating E2 enzyme of yeast; Tag is cut by NEDP1 only at elution; also called immobilized Ubc9; source: E. coli NEB express, purified (Ni2+ chelate beads)
Question: Does B1 bind?
Answer: binds
